Data on 1 substance can be found in patent publication US9884093B2 (Eli Lilly and Company, priority 2015, dated 2018).

Usually EC50 stands for the concentration at which the effect is half-maximal.

The target in data set [1] is T1, human glucagon receptor (hGcg-R) (Homo sapiens, UniProt P47871).
T1 construct: expressed in transfected cells; host or cells: 293HEK cells, hygromycin-selected
Put plainly: hGcg-R functional cAMP assay. It counts as cell-based. The conditions noted are these: read-out: EC50 Gcg Receptor Assay. (Cyclic AMP is a second messenger, typically raised through Gs and lowered through Gi signalling.)

Data set [2] in a line: Stability in co-formulation with GLP-1R agonist (SEC-HPLC, RP-HPLC). It counts as physicochemical. The conditions noted are these: four weeks. The protocol:
Examples 1 and 3 are prepared and dialyzed against C6.5 (10 mM Citrate pH 6.5) using the same method as described above for preparation into T7 buffer. Compounds are formulated separately at 1 mg/mL peptide in buffer C6.5, C6.5M (10 mM Citrate, 46.4 mg/mL D-mannitol, pH 6.5), C6.5T (10 mM Citrate, 0.02% polysorbate-80, pH 6.5), and C6.5MT (10 mM Citrate, 46.4 mg/mL D-mannitol, 0.02% polysorbate-80, pH 6.5). A stock concentration of 46.5 mg/mL of dulaglutide in C6.5 is used to formulate dulaglutide at 3 mg/mL in C6.5 and C6.5MT. Co-formulations in C6.5MT are prepared having 3 mg/mL dulaglutide and 1 mg/mL Example 1, or 3 mg/mL dulaglutide and 1 mg/mL Example 3. Each formulated sample is transferred to three vials and maintained at 4° C., 25° C. and 40° C. Samples are assessed every two weeks for a total of four weeks. Samples are visually assessed for turbidity and phase separation. Stability is assessed by RP-HPLC and SEC-HPLC as described above. Both described HPLC methods give good separation of Example compounds and dulaglutide main peaks as well as all degradation peaks produced by stressing the sample at pH 9 and 40° C. for 3 days.

Data set [3] has as its target T2, glucose-dependent insulinotropic polypeptide receptor, hGIP-R (Homo sapiens, UniProt P48546).
T2 sequence (P48546 22-466): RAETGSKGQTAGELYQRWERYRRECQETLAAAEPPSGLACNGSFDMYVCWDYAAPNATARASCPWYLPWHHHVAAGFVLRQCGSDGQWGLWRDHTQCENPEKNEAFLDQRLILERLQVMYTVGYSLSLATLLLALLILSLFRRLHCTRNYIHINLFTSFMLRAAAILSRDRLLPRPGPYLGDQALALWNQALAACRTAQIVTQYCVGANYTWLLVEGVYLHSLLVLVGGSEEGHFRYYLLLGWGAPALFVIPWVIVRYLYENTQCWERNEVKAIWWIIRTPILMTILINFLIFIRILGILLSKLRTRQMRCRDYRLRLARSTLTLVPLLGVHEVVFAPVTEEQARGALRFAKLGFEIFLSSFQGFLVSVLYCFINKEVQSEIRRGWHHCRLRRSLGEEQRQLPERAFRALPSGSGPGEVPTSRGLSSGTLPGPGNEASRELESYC
Briefly: hGIP-R functional cAMP assay. The conditions noted are these: read-out: EC50 GIP Receptor Assay.
Protocol: (§1) The hGIP-R functional assay uses hGIP-R (Usdin, T. B., Gruber, C., Modi, W. and Bonner, T. I., GenBank: AAA84418.1) cloned into pcDNA3.1 (Promega)-NeoR plasmid. The hGIP-R-pcDNA3.1/Neo plasmid is transfected into Chinese Hamster Ovary cells, CHO-S, for suspension cultures and selected in the presence of 500 μg/mL Geneticin (Invitrogen).

Data set [4] concerns the target human Glucagon-Like Peptide-1 receptor (hGLP-1-R) (Homo sapiens, UniProt P43220). Briefly: hGLP-1-R functional cAMP assay. The conditions noted are these: read-out: EC50 GLP-1 Receptor Assay.
Protocol: as §1

Where two headings read alike, the source gives them in different places.

T1 sequence (P47871 26-477): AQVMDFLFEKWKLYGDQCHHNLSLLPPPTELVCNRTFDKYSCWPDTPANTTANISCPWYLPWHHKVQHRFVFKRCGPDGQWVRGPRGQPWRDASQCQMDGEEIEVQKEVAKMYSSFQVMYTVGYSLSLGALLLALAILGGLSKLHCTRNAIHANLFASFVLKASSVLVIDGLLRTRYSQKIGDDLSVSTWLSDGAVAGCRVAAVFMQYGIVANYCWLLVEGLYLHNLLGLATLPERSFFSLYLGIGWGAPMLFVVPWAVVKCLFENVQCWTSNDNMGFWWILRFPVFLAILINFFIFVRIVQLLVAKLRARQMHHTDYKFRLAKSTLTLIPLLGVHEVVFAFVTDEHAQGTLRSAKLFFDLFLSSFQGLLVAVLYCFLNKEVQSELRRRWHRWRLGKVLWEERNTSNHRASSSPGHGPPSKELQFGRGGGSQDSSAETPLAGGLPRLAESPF
human Glucagon-Like Peptide-1 receptor (hGLP-1-R), sequence (P43220 24-463): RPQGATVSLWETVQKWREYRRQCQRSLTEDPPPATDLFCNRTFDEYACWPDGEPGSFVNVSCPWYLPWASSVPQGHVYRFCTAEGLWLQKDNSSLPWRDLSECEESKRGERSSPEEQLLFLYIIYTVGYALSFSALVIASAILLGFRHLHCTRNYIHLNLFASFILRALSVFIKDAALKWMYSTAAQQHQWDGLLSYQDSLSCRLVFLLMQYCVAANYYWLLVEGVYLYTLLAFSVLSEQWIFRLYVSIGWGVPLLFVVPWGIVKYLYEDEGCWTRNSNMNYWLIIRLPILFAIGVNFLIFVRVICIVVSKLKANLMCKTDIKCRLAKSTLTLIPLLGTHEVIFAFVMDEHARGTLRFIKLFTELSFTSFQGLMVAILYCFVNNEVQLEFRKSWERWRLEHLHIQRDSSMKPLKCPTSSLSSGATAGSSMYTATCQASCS

In the case of dulaglutide, the EC50 in data set [1] (sample C6.5-4 C.-4 wk) was 0.0519 ± 0.0681 µM; in data set [1] (sample C6.5-40 C.-4 wk), above 0.1 µM; in data set [1] (sample C6.5MT-4 C.-4 wk) it was 0.054 ± 0.065 µM; in data set [1] (sample C6.5MT-40 C.-4 wk), above 0.1 µM; in data set [3] (sample C6.5-4 C.-4 wk), above 0.1 µM; in data set [3] (sample C6.5-40 C.-4 wk), above 0.1 µM. Further, the EC50 in data set [3] (sample C6.5MT-4 C.-4 wk) is above 0.1 µM; in data set [3] (sample C6.5MT-40 C.-4 wk) it was above 0.1 µM; in data set [4] (sample C6.5-4 C.-4 wk) it was 0.00037 ± 0.00011 µM; in data set [4] (sample C6.5-40 C.-4 wk), 0.00031 ± 0.00017 µM; in data set [4] (sample C6.5MT-4 C.-4 wk), 0.0004 ± 0.00014 µM; in data set [4] (sample C6.5MT-40 C.-4 wk), 0.00029 ± 9e-05 µM. Besides, the “GLP-1-Fc Δ % Main Peak” value is −1.45% in data set [2] (RP-HPLC, C6.5, 4° C.); above −10% in data set [2] (RP-HPLC, C6.5, 25° C.); −9.96% in data set [2] (RP-HPLC, C6.5, 40° C.); −0.46% in data set [2] (RP-HPLC, C6.5MT, 4° C.); −0.8% in data set [2] (RP-HPLC, C6.5MT, 25° C.); −7.47% in data set [2] (RP-HPLC, C6.5MT, 40° C.). Moreover, the “GLP-1-Fc Δ % Main Peak” value in data set [2] (SEC-HPLC, C6.5, 4° C.) is given as 0.19%; in data set [2] (SEC-HPLC, C6.5, 25° C.), −0.54%; in data set [2] (SEC-HPLC, C6.5, 40° C.), above −10%; in data set [2] (SEC-HPLC, C6.5MT, 4° C.), 0.29%; in data set [2] (SEC-HPLC, C6.5MT, 25° C.) it was −0.87%; in data set [2] (SEC-HPLC, C6.5MT, 40° C.), −0.83%.
